US20240400686A1 (CITY OF HOPE, published 2024)
Read-outs that look alike come from different tables or passages of the source. Blank lines part the entries; values can stand above or below the binder they belong to. Where no end group is shown, it is not given here. [ ]: non-standard residue; d: D form. pGlu = O=C1CC[C@@H](C(=O)O)N1

Columns and labels:
[1] = biological target: Cyno CD3εδ (cynomolgus monkey); test: SPR, sensorgrams at 3-100 nM; set-up not given
[2] = biological target: T1, CD3 epsilon N-terminal peptide (SEQ ID NO:13) (human and cynomolgus monkey (first …)); test: SPR on a CD3 peptide, concentration series 3-300 nM (sensorgrams in FIG. 25B)
T1 construct: also called CD3 peptide; CD3 epsilon peptide
T1 peptide: [pGlu]DGNEEMGGITQTPYK

[3] = biological target: T1, CD3 epsilon N-terminal peptide (SEQ ID …); test: SPR on a CD3 peptide, concentration series 3-300 nM
[4] = biological target: T1, CD3 epsilon N-terminal peptide (SEQ ID …); test: SPR on a CD3 peptide, concentration series 3-300 nM (sensorgrams in FIG. 25A)
[5] = biological target: T1, CD3 epsilon N-terminal peptide (SEQ ID …); test: SPR on a CD3 peptide, concentration series 3-300 nM
[6] = biological target: T1, CD3 epsilon N-terminal peptide (SEQ ID …); test: as above
[7] = biological target: T2, recombinant human CD3epsilon/CD3gamma extracellular domain fused with human IgA1.Fc (human); test: SPR, Biacore T200: human CD3-IgA immobilised on a CM5 chip, antibody as analyte
T2 construct: also called human CD3e/CD3g proteins; human CD3 proteins
Protocol: Binding affinities for the different antibodies of interest were measured by surface plasmon resonance (SPR), using a Biacore T200 (GE Healthcare). Human CD3-IgA was immobilized to 200 RU on a CM5 (GE Life Sciences) chip using NHS chemistry. Analytes (CD3 antibodies) were diluted 2× in concentrations (from 12.5 nM to 0.125 nM) and flown over chip at a flow rate of 30 µl/min with HBS-EP+ buffer. Data were analyzed using Biacore T200 Evaluation software v3.0.

Cyno CD3εδ (cynomolgus monkey), sequence (Q95LI5 22-117, stated change not applied, chain 1 of 2): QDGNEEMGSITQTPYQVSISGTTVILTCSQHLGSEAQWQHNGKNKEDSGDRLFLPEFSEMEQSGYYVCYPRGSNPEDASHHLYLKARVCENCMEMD
Cyno CD3εδ (cynomolgus monkey), sequence (Q95LI8 22-105, stated change not applied, chain 2 of 2, further chain): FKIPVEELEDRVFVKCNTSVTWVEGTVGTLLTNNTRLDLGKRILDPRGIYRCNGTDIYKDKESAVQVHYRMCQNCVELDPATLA

Kd [1]: 36 nM | koff [1]: 0.031 s⁻¹ | kon [1]: 870000 M⁻¹ s⁻¹ | Kd [2]: 51.6 nM | koff [2]: 0.0322 s⁻¹ | kon [2]: 623000 M⁻¹ s⁻¹
B1: humanized 26H8 Fab (Fab, V domains shown)
VH: QVQLQESGPGLVKPSETLSLTCTASGYTFTNYYIHWVRQSPGKGLEWIGWIYCGDGSTKFNEQFKDRTTLSADHSKTQASLKLSSVTAADTAIYFCARDWAGSYFFDFWGQGTMVTVSS
VL: DIQMTQSPSSLSASVGDRVTITCKSSQSLLNSRTRKNYLAWYQQKPGKAPKLLIYWASTRESGVPSRFSGSGSGTDFTFTISSLQPEDIATYYCKQSYILRTFGGGTKVEIKR
notes: a Fab; also called h26H8 Fab; h26H8

binding result [3]: no binding (tested: 300 nM)
B2: H26H8 Fab H35F (Fab, V domains shown)
VH: QVQLQESGPGLVKPSETLSLTCTASGYTFTNYYIFWVRQSPGKGLEWIGWIYCGDGSTKFNEQFKDRTTLSADHSKTQASLKLSSVTAADTAIYFCARDWAGSYFFDFWGQGTMVTVSS
VL: DIQMTQSPSSLSASVGDRVTITCKSSQSLLNSRTRKNYLAWYQQKPGKAPKLLIYWASTRESGVPSRFSGSGSGTDFTFTISSLQPEDIATYYCKQSYILRTFGGGTKVEIKR
notes: Fab' fragment; phenylalanine at position 35 of the heavy chain variable domain; also called h26H8 H35F; h26H8 H35F Fab'

Kd [4]: 116 nM | koff [4]: 0.0658 s⁻¹ | kon [4]: 569000 M⁻¹ s⁻¹
B3: H26H8 Fab C53S (Fab, V domains shown)
VH: QVQLQESGPGLVKPSETLSLTCTASGYTFTNYYIHWVRQSPGKGLEWIGWIYSGDGSTKFNEQFKDRTTLSADHSKTQASLKLSSVTAADTAIYFCARDWAGSYFFDFWGQGTMVTVSS
VL: DIQMTQSPSSLSASVGDRVTITCKSSQSLLNSRTRKNYLAWYQQKPGKAPKLLIYWASTRESGVPSRFSGSGSGTDFTFTISSLQPEDIATYYCKQSYILRTFGGGTKVEIKR
notes: Fab' fragment; serine at position 53 of the heavy chain variable domain; also called h26H8 C53S

binding result [5]: no binding (tested: 300 nM)
B4: H26H8 Fab H35Y (Fab, V domains shown)
VH: QVQLQESGPGLVKPSETLSLTCTASGYTFTNYYIYWVRQSPGKGLEWIGWIYCGDGSTKFNEQFKDRTTLSADHSKTQASLKLSSVTAADTAIYFCARDWAGSYFFDFWGQGTMVTVSS
VL: DIQMTQSPSSLSASVGDRVTITCKSSQSLLNSRTRKNYLAWYQQKPGKAPKLLIYWASTRESGVPSRFSGSGSGTDFTFTISSLQPEDIATYYCKQSYILRTFGGGTKVEIKR
notes: Fab' fragment; tyrosine at position 35 of the heavy chain variable domain; also called h26H8 H35Y; h26H8 H35Y Fab'

binding result [6]: no binding (tested: 300 nM)
B5: H26H8 Fab Y33S (Fab, V domains shown)
VH: QVQLQESGPGLVKPSETLSLTCTASGYTFTNYSIHWVRQSPGKGLEWIGWIYCGDGSTKFNEQFKDRTTLSADHSKTQASLKLSSVTAADTAIYFCARDWAGSYFFDFWGQGTMVTVSS
VL: DIQMTQSPSSLSASVGDRVTITCKSSQSLLNSRTRKNYLAWYQQKPGKAPKLLIYWASTRESGVPSRFSGSGSGTDFTFTISSLQPEDIATYYCKQSYILRTFGGGTKVEIKR
notes: Fab' fragment; serine at position 33 of the heavy chain variable domain; also called h26H8 Y33S; h26H8 Y33S Fab'

koff [7]: 0.0034 s⁻¹ | kon [7]: 1.12e+07 M⁻¹ s⁻¹
B6: antibody 3F11 (antibody, V domains shown)
VH: QVQLQQSGPDLVRPGASVKMSCKASGYTFTNYYVHWLNQRPGQGLEWIGWIYPGDGSTKFNEKFKGKTTLTADKSSSTAYILLSSLTSADSAIYFCTRDAGYYFDVWGAGTTVTVSS
VL: DIVMSQSPSSLAVSAGEKVTISCKSSQSLLNNRTRKNYLAWYQQKPGQSPKLLIYWASTRESGVPDRFTGSGSGTDFTLTISSVQAEDLAVYYCKQSYILRTFGGGTKLEIK
notes: Tested as mouse hybridoma antibody (culture supernatant or mAb); also called Clone 3F11

koff [7]: 0.00062 s⁻¹ | kon [7]: 2.3e+06 M⁻¹ s⁻¹
B7: mouse antibody 26H8 (antibody, V domains shown)
VH: QVQLQQSGPELVKPGASVRMSCKASGYTFTNYYIHWVRQRPGQGLEWIGWIYCGDGSTKFNEQFKDRTTLTADHSSSTAYMLLSSLTSEDSAIYFCARDWAGSYFFDFWGQGTTLTVSS
VL: DIVMSQSPSSLAVSAGEKVTMSCKSSQSLLNSRTRKNYLAWYQQKPGQSPKLLIYWASTRESGVPDRFTGSGSGTDFTLTISSVQAEDLAVYYCKQSYILRTFGGGTKLEIK
notes: Tested as mouse hybridoma antibody (culture supernatant or mAb); also called Clone 26H8; 261H8
